# Reference: paper PMC5655542 (2017)
# T1: H. polygyrus Alarmin Release Inhibitor (HpARI), recombinant mature 6-His and Myc-tagged protein (Heligmosomoides polygyrus)
# T1 chain: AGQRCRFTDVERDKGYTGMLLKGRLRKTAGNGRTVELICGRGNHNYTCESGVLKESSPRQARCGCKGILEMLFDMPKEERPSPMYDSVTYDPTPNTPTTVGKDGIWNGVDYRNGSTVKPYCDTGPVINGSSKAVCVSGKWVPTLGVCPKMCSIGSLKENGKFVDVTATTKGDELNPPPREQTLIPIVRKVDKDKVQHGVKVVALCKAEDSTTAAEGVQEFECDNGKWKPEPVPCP
# B1: recombinant murine IL-33, untreated (reduced, active form) (ligand)
# chain: SIQGTSLLTQSPASLSTYNDQSVSFVLENGCYVINVDDSGKDQEQDQVLLRYYESPCPASQSGDGVDGKKLMVNMSPIKDTDIWLHANDKDYSVELQRGDVSPPEQAFFVLHKKSSDFVSFECKNLPGTYIGVKDNQLALVEEKDESCNNIMFKLSKI
# modifications: reduced (free cysteines, no disulfides), active form; limits not given, taken as the usual commercial mature mouse IL-33 (Ser109-Ile266, UniProt chain 109-266)
# B2: recombinant human IL-33, untreated (reduced, active form) (ligand)
# chain: MKPKMKYSTNKISTAKWKNTASKALCFKLGKSQQKAKEVCPMYFMKLRSGLMIKKEACYFRRETTKRPSLKTGRKHKRHLVLAACQQQSTVECFAFGISGVQKYTRALHDSSITGISPITEYLASLSTYNDQSITFALEDESYEIYVEDLKKDEKKDKVLLSYYESQHPSNESGDGVDGKMLMVTLSPTKDFWLHANNKEHSVELHKCEKPLPDQAFFVLHNMHSNCVSFECKTDPGVFIGVKDNHLALIKVDSSENLCTENILFKLSET
# Target: T1, H. polygyrus Alarmin Release Inhibitor …
# Assay: SPR; 25°C
row,Binder,koff
1,B1,0.00014 s⁻¹
2,B2,0.004 s⁻¹
